The target of data set [1] is IFI16 HINab (UniProt Q16666 189-761). As to the kind of experiment: AlphaScreen. On the technique in general: Alpha assays give light when donor and acceptor beads are brought close together.
Data set [2] deals with IFI16 HINa (UniProt Q16666 189-389). As to the kind of experiment: AlphaScreen.
IFI16 HINa, sequence (Q16666 189-389): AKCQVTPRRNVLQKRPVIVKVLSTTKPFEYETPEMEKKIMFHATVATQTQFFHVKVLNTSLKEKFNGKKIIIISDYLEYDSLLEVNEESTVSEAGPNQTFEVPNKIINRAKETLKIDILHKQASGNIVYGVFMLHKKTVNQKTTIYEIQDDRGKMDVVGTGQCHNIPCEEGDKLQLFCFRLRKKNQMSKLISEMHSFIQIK

IFI16 HINab, sequence (Q16666 189-761): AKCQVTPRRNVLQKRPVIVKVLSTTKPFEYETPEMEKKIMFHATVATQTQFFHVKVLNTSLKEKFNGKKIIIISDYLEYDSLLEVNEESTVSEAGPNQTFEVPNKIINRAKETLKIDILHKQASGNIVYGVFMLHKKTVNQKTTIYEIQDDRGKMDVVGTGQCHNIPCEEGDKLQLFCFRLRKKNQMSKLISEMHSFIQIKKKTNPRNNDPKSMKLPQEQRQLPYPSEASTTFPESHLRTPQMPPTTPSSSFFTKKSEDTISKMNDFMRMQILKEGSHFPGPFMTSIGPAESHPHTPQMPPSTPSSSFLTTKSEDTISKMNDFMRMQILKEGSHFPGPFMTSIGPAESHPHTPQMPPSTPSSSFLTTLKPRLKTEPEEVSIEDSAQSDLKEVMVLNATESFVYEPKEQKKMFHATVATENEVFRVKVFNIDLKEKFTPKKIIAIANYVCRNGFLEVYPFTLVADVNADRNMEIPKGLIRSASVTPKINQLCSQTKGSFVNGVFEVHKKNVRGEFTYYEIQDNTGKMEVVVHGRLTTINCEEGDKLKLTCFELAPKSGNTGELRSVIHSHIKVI

B1: dsVACV 70mer (dsDNA)
DNA 1: CCATCAGAAAGAGGTTTAATATTTTTGTGAGACCATCGAAGAGAGAAAGAGATAAAACTTTTTTACGACT
DNA 2: AGTCGTAAAAAAGTTTTATCTCTTTCTCTCTTCGATGGTCTCACAAAAATATTAAACCTCTTTCTGATGG
As for B1, the binding result is “binds” in data set [1] and “no binding” in data set [2].
